B1: Myr-I3-01-myc-p6 (designed binder)
chain: MGARASGSKSGSGSDSGSKMEELFKKHKIVAVLRANSVEEAKKKALAVFLGGVHLIEITFTVPDADTVIKELSFLKEMGAIIGAGTVTSVEQCRKAVESGAEFIVSPHLDEEISQFCKEKGVFYMPGVMTPTELVKAMKLGHTILKLFPGEVVGPQFVKAMKGPFPNVKFVPTGGVNLDNVCEWFKAGVLAVGVGSALVKGTPVEVAEKAKAFVEKIRGCTEQKLISEEDLQSRPEPTAPPEESFRSGVETTTPPQKQEPIDKELYPLTSLRSLFGNDPSSQ
modifications: N-terminal myristoylation motif (6 N-terminal residues of HIV Gag); myristoylated in mammalian cells, not in E. coli
notes: Fusion of the HIV Gag N-terminal six residues, a linker, I3-01, a myc tag and the HIV Gag p6 domain; also called Myr-I3-01-p6
B2: EPN-01 (designed binder)
chain: MGARASGSKSGSGSDSGSKIEELFKKHKIVAVLRANSVEEAKKKALAVFLGGVHLIEITFTVPDADTVIKELSFLKEMGAIIGAGTVTSVEQCRKAVESGAEFIVSPHLDEEISQFCKEKGVFYMPGVMTPTELVKAMKLGHTILKLFPGEVVGPQFVKAMKGPFPNVKFVPTGGVNLDNVCEWFKAGVLAVGVGSALVKGTPVEVAEKAKAFVEKIRGCTEQKLISEEDLQSRPEPTAPPEESFRSGVETTTPPQKQEPIDKELYPLTSLRSLFGNDPSSQ
modifications: N-terminal myristoylation motif
notes: Myr-I3-01-myc-p6 with the methionine at the N-terminal end of the I3-01 O domain mutated to isoleucine

Tests used:
[1] = target: the molecule itself; test: size exclusion chromatography and negative stain electron microscopy, self-assembly
[2] = target: the molecule itself; test: electron cryo-tomography of vesicles from transfected HEK293T cells, self-assembly

Protein	binding result [1]	binding result [2]
B1	binds	
B2		binds

— US20190352639A1 (University of Washington, published 2019)
